The experiment addresses T1, IL18BP (human, UniProt O95998 31-194).
T1 construct: also called ILBP antigen
T1 sequence (looked up): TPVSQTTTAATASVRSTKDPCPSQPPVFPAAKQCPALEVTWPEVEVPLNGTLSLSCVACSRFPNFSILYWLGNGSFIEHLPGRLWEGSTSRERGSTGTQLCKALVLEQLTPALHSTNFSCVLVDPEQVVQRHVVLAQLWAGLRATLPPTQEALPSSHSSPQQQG
In words: Octet (BLI), IL18BP as ligand on the biosensor, IL18 fusion as analyte. The text has this: Binding of variant IL18 to IL18 receptors or IL18BP were investigated using Octet, a BioLayer Interferometry (BLI)-based method. Experimental steps for Octet generally include the following: Immobilization (capture of ligand to a biosensor); Association (dipping of ligand-coated biosensors into wells containing serial dilutions of the analyte); and Dissociation (returning of biosensors to well containing buffer) in order to determine the affinity of the test articles. A reference well containing buffer alone was also included in the method for background correction during data processing. In particular, ligands used were IL18R1, IL18R1xIL18RAP heterodimer, or IL18BP, and the analytes were IL18 fusions. Illustrative sequences for these antigens are depicted in FIGS. 1-3 (respectively for human, mouse, and cynomolgus monkey).

B1: XENP40253 (Fc fusion)
chain: YFGKLESKLSVIRNLNDQVLFIDQGNRPLFEDMTDSDSRDNAPRTIFIISMYDDSQPRGMAVTISVKSEKISTLSSENKIISFKEMNPPDNIKDTKSDIIFFQRSVPGHDNKMQFESSSYEGYFLASEKERDLFKLILKKEDELGDRSIMFTVQNEDEPKSSDKTHTCPPCPAPPVAGPSVFLFPPKPKDTLMISRTPEVTCVVVDVKHEDPEVKFNWYVDGVEVHNAKTKPREEEYNSTYRVVSVLTVLHQDWLNGKEYKCKVSNKALPAPIEKTISKAKGQPREPQVYTLPPSREEMTKNQVSLTCDVSGFYPSDIAVEWESDGQPENNYKTTPPVLDSDGSFFLYSKLTVDKSRWEQGDVFSCSVMHEALHNHYTQKSLSLSPG
heavy: QVQLQESGPGLVRPSQTLSLTCTVSGFSLTGYGVNWVRQPPGRGLEWIGMIWGDGNTDYNSALKSRVTMLKDTSKNQFSLRLSSVTAADTAVYYCARERDYRLDYWGQGSLVTVSSASTKGPSVFPLAPSSKSTSGGTAALGCLVKDYFPEPVTVSWNSGALTSGVHTFPAVLQSSGLYSLSSVVTVPSSSLGTQTYICNVNHKPSNTKVDKKVEPKSCDKTHTCPPCPAPPVAGPSVFLFPPKPKDTLMISRTPEVTCVVVDVKHEDPEVKFNWYVDGVEVHNAKTKPREEQYNSTYRVVSVLTVLHQDWLNGKEYKCKVSNKALPAPIEKTISKAKGQPREPQVYTLPPSREQMTKNQVKLTCLVKGFYPSDIAVEWESNGQPENNYKTTPPVLDSDGSFFLYSKLTVDKSRWQQGNVFSCSVMHEALHNRFTQKSLSLSPG
light: DIQMTQSPSSLSASVGDRVTITCRASGNIHNYLAWYQQKPGKAPKLLIYYTTTLADGVPSRFSGSGSGTDYTFTISSLQPEDIATYYCQHFWSTPRTFGQGTKVEIKRTVAAPSVFIFPPSDEQLKSGTASVVCLLNNFYPREAKVQWKVDNALQSGNSQESVTEQDSKDSTYSLSSTLTLSKADYEKHKVYACEVTHQGLSSPVTKSFNRGEC
notes: also called K53D single substitution variant; K53D
In the case of B1, the binding result was “no binding”.
